The results in this text go back to publication PMC2881153.

Where two headings read alike, the source gives them in different places.

For one data set, the target named is T1, Fl-Imp3p;Rh-Imp4p (Saccharomyces cerevisiae;Saccharomyces …, UniProt P32899;P53941 1-183;1-290, |).
T1 sequence 1: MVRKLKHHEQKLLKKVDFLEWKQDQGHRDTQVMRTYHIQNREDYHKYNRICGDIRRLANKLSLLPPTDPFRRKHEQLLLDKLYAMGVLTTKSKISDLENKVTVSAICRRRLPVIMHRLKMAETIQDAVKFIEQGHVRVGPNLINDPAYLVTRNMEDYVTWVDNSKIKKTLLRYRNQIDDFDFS
T1 sequence 2: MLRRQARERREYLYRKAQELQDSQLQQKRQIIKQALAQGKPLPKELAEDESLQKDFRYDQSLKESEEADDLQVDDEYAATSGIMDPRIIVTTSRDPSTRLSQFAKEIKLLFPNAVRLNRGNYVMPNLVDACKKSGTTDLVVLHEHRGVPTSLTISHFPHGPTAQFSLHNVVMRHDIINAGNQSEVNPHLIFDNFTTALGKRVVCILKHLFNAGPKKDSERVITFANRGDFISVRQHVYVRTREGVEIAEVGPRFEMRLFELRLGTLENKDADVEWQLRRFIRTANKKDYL
Nature of the data set: ssFRET.

In a further data set the target is T2, Imp3p (Saccharomyces cerevisiae, UniProt P32899 1-183).
T2 sequence: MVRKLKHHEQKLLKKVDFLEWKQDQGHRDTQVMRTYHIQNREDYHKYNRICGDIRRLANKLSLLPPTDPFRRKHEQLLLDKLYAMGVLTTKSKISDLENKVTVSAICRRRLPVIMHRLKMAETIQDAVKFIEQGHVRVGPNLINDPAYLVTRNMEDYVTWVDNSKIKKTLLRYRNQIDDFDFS
Kind of data set: trFRET.

Data set [1] addresses T3, Imp3p;Imp4p (Saccharomyces cerevisiae;Saccharomyces …, UniProt P32899;P53941 1-183;1-290, |).
T3 sequence 1: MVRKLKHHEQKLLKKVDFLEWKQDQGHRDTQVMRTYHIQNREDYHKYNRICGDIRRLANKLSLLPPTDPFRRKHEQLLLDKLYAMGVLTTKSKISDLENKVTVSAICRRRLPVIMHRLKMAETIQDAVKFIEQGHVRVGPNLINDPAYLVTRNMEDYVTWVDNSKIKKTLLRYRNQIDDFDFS
T3 sequence 2: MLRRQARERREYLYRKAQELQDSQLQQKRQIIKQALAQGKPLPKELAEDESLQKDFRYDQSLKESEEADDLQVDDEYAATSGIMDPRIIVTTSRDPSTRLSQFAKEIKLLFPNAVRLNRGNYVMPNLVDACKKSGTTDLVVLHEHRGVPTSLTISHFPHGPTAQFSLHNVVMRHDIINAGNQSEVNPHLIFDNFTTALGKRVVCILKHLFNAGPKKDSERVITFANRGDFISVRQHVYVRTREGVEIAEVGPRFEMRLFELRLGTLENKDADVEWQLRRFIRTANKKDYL
Nature of the data set: trFRET.

The target in data set [2] is T3, Imp3p;Imp4p. Nature of the data set: trFRET. The source holds these as a separate data set.

Take GGACGUACUUCAUAGGAUCAUUUCUAUAGGAAUCGUCACUCUUUGACU (structured_RNA) [U3 MINI]: the binding result with Fl-Imp3p;Rh-Imp4p is reported as “binds”.

Consider GGACGUACUUCAUAGGAUCAUUUCUAUAGGAAUCGUCACUCUUUGACU (structured_RNA) [Fl-U3 MINI-Rh], for which the binding result with Imp3p and with Imp3p;Imp4p [1] was “binds” throughout.

B1: Fl-U3 MINI-Rh with 18S (dsRNA)
RNA 1: GGACGUACUUCAUAGGAUCAUUUCUAUAGGAAUCGUCACUCUUUGACU
RNA 2: GGUUGAUCCUGCCAGUA
As to B1, the binding result with Imp3p;Imp4p [2] is given as “binds”.
